Results published in paper PMC5651189.

Target: PKA regulatory subunit RIIα (human (endogenous in SK-Br-3)) (UniProt P13861)
Assay: proximity ligation

PKA regulatory subunit RIIα (human (endogenous in SK-Br-3)), sequence (P13861 whole entry): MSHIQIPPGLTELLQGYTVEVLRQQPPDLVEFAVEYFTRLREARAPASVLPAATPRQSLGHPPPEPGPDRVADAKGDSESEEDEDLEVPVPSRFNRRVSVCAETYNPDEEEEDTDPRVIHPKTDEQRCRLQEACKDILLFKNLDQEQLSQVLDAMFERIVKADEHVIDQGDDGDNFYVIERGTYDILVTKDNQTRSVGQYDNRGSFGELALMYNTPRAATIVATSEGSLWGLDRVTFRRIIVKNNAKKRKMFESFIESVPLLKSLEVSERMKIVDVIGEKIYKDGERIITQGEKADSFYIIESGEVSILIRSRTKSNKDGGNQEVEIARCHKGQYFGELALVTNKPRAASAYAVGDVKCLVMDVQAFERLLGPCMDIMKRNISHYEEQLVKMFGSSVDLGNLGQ

decrease of CICF in SK.tDp^T39A against SK.empty cells: 67% | increase of CICF in SK.tDp against SK.empty cells: 36%
Substance: PKA catalytic subunit (PKAc) (from UniProt P17612 1-351) (enzyme)
